Source: patent US20220265715A1 (EUREKA THERAPEUTICS, published 2022)

B1: Anti-AFP-CD30z-CAR (other)
chain: QSVLTQPASVSGSPGQSITISCTGTSSDVGGYNYVSWYQQHPGKAPKLMIYDVNNRPSEVSNRFSGSKSGNTASLTISGLQAEDEADYYCSSYTTGSRAVFGGGTKLTVLGSRGGGGSGGGGSGGGGSLEMAEVQLVQSGAEVKKPGESLTISCKASGYSFPNYWITWVRQMSGGGLEWMGRIDPGDSYTTYNPSFQGHVTISIDKSTNTAYLHWNSLKASDTAMYYCARYYVSLVDIWGQGTLVTVSSEQKLISEEDLAAATGAPPLGTQPDCNPTPENGEAPASTSPTQSLLVDSQASKTLPIPTSAPVALSSTGKPVLDAGPVLFWVILVLVVVVGSSAFLLCHRRACRKRIRQKLHLCYPVQTSQPKLELVDSRPRRSSTQLRSGASVTEPVAEERGLMSQPLMETCHSVGAAYLESLPLQDASPAGGPSSPRDLPEPRVSTEHTNNKIEKIYIMKADTVIVGTVKAELPEGRGLAGPAEPELEEELEADHTPHYPEQETEPPLGSCSDVMLSVEEEGKEDPLPTAASGKRVKFSRSADAPAYQQGQNQLYNELNLGRREEYDVLDKRRGRDPEMGGKPRRKNPQEGLYNELQKDKMAEAYSEIGMKGERRRGKGHDGLYQGLSTATKDTYDALHMQALPPR
notes: Chimeric antigen receptor on transduced primary human T cells: anti-AFP/MHC scFv, myc tag, CD30 TM, CD30 costimulatory domain, CD3zeta; also called αAFP -CD30z CAR
B2: Anti-AFP-CD28z-CAR (other)
chain: QSVLTQPASVSGSPGQSITISCTGTSSDVGGYNYVSWYQQHPGKAPKLMIYDVNNRPSEVSNRFSGSKSGNTASLTISGLQAEDEADYYCSSYTTGSRAVFGGGTKLTVLGSRGGGGSGGGGSGGGGSLEMAEVQLVQSGAEVKKPGESLTISCKASGYSFPNYWITWVRQMSGGGLEWMGRIDPGDSYTTYNPSFQGHVTISIDKSTNTAYLHWNSLKASDTAMYYCARYYVSLVDIWGQGTLVTVSSEQKLISEEDLAAAIEVMYPPPYLDNEKSNGTIIHVKGKHLCPSPLFPGPSKPFWVLVVVGGVLACYSLLVTVAFIIFWVRSKRSRLLHSDYMNMTPRRPGPTRKHYQPYAPPRDFAAYRSRVKFSRSADAPAYQQGQNQLYNELNLGRREEYDVLDKRRGRDPEMGGKPRRKNPQEGLYNELQKDKMAEAYSEIGMKGERRRGKGHDGLYQGLSTATKDTYDALHMQALPPR
notes: Chimeric antigen receptor on transduced primary human T cells: anti-AFP/MHC scFv, myc tag, CD28 TM, CD28 costimulatory domain, CD3zeta; also called αAFP -CD28z CAR

Molecular target: T1, biotinylated AFP158/HLA-A*02:01 tetramer (human, biotinylated via the BSP peptide linked to the C-terminal end of the HLA-A*02:01 extracellular domain)
T1 construct: also called AFP158 tetramer; not shown: BSP peptide (BirA biotinylation site) at the C-terminus
Test: flow cytometry, AFP158/HLA-A*02:01 tetramer staining of CAR-transduced T cells

Binder | binding result
B1 | binds
B2 | binds
